Data published in article PMC11903869, “Structure and function of the geldanamycin amide synthase from Streptomyces hygroscopicus” (Nature Communications, 2025).

What was measured:
GdmF [1] = molecular target: T1, GdmF (Streptomyces hygroscopicus, UniProt Q84G21); assay: X-ray crystal structure (cleaved group from pantetheine thioesters); type: binding
T1 construct: full-length GdmF, N-terminal histidine hexamer

GdmF [2] = molecular target: T1, GdmF; assay: microscale thermophoresis; type: binding
GdmF [3] = molecular target: T1, GdmF; assay: X-ray crystal structure (cleaved group from SNAC thioesters); type: binding
[4] = substrate: CC(=O)SCCNC(=O)CCNC(=O)[C@H](O)C(C)(C)CO; assay: purified protein, by the assay type; design: Steady-state amide formation, thiol release from thioesters monitored with DTNB at 405 nm, 22 °C; kcat: unit: s^-1; details: pH 7.5; 22.0 °C
Description: (§1) The enzymatic activity of ShGdmF was measured by monitoring the release of free thiols with 5,5’-dithio-bis(2-nitrobenzoic acid) (DTNB) at 405 nm in 100 mM sodium phosphate buffer, pH 7.5. 2 µM ShGdmF was pre-incubated with 2 mM aminophenol 32 or 33 and 100 µM DTNB at 22 °C for 5 min in a 96-well plate before increasing concentrations of thioester 11a-c or 13a-c were added to each well. Measurements were performed using a Multiskan FC Microplate Photometer (Thermo Fisher Scientific) at 22 °C. Each measurement was performed in triplicate. […] The enzyme is able to catalyze the amide synthesis of SNAC and pantetheine thioesters directly in vitro and in the absence of the cellular environment (Fig. 6e + 6f). The kinetic parameters KM of GdmF for substrate conversion range from submillimolar to millimolar at maximum rates (kcat) of 0.001 to 0.02 s^−1. […] For the SNAC thioesters, an increase in kcat/KM with increasing chain length was observed, whereas in the case of the pantetheine thioesters, a decrease in catalytic efficiency with longer acyl substrates was observed. In terms of kcat values, the activity of GdmF is similar to that of the related MsNAT.

[5] = substrate: CC/C=C/C(=O)SCCNC(=O)CCNC(=O)[C@H](O)C(C)(C)CO; assay: purified protein, by the assay type; design: Steady-state amide formation, thiol release from thioesters monitored with DTNB at 405 nm, 22 °C; kcat: unit: s^-1; details: pH 7.5; 22.0 °C
Description: as §1

[6] = substrate: C/C=C/C(=O)SCCNC(C)=O; assay: purified protein, by the assay type; design: Steady-state amide formation, thiol release from thioesters monitored with DTNB at 405 nm, 22 °C; kcat: unit: s^-1; details: pH 7.5; 22.0 °C
Description: as §1

[7] = substrate: C/C=C(\C)C(=O)SCCNC(C)=O; assay: purified protein, by the assay type; design: Steady-state amide formation, thiol release from thioesters monitored with DTNB at 405 nm, 22 °C; kcat: unit: s^-1; details: pH 7.5; 22.0 °C
Description: as §1

[8] = substrate: CC(=O)SCCNC(=O)CCNC(=O)[C@H](O)C(C)(C)CO; assay: purified protein, by the assay type; design: Steady-state amide formation, thiol release from thioesters monitored with DTNB at 405 nm, 22 °C; kcat: unit: s^-1; details: pH 7.5; 22.0 °C; remark: listed apart in the source
Description: as §1

[9] = substrate: CC/C=C/C(=O)SCCNC(=O)CCNC(=O)[C@H](O)C(C)(C)CO; assay: purified protein, by the assay type; design: Steady-state amide formation, thiol release from thioesters monitored with DTNB at 405 nm, 22 °C; kcat: unit: s^-1; details: pH 7.5; 22.0 °C; remark: listed apart in the source
Description: as §1

[10] = substrate: C/C=C/C(=O)SCCNC(C)=O; assay: purified protein, by the assay type; design: Steady-state amide formation, thiol release from thioesters monitored with DTNB at 405 nm, 22 °C; kcat: unit: s^-1; details: pH 7.5; 22.0 °C; remark: listed apart in the source
Description: as §1

[11] = substrate: C/C=C(\C)C(=O)SCCNC(C)=O; assay: purified protein, by the assay type; design: Steady-state amide formation, thiol release from thioesters monitored with DTNB at 405 nm, 22 °C; kcat: unit: s^-1; details: pH 7.5; 22.0 °C; remark: listed apart in the source
Description: as §1

CC(C)(CO)[C@@H](O)C(=O)NCCC(=O)NCCS [pantetheine]
X-ray crystal structure (cleaved group from pantetheine thioesters) (GdmF [1]): Crystal structure of GdmF with bound pantetheine, and (b) N-acetylcysteamine (SNAC) in the active site cleft

C/C=C(\C)C(=O)SCCNC(C)=O [11b, SNAC ester 11b]
Kd (GdmF [2]): 1160 µM

CC(=O)NCCS [N-acetylcysteamine]
X-ray crystal structure (cleaved group from SNAC thioesters) (GdmF [3]): we found densities for the cleaved SNAC or pantetheine groups, instead

CC(=O)SCCNC(=O)CCNC(=O)[C@H](O)C(C)(C)COP(=O)(O)OP(=O)(O)OC[C@H]1O[C@@H](n2cnc3c(N)ncnc32)[C@H](O)[C@@H]1OP(=O)(O)O [compound 5, acetyl-CoA]
Kd (GdmF [2]): 2960 µM

B1: GdmF (Streptomyces hygroscopicus) (protein)
chain: MFDVAKYLRRIGVEGTPPPTLDTLRHLHKRHLMAVPYDNSTAPDRLPASRHLTNVPLDLVFGHVVTEGHGGVCYELNRLFHTLLAELGYDVRMVAAAVRQANGTFGPEREHTFDLVHLDGRTHLVDVGFPGPSYSEPLYLSEEEQHQYGCSYRVTEHDGYRVVERRPKGSDWQPVYRFRPELADPSGWDAVRLDSLDDYAQDSVLAGTTFRSRATDNGKIVLIGRRYFTVEDGVERTKVLVKADEFQDVVDLILAGA
notes: full-length GdmF, N-terminal histidine hexamer
Km [4]: 3.6483 ± 2.8127 mM
kcat [4]: 0.0075 ± 0.0051 s⁻¹
kcat/Km [4]: 2.06 M⁻¹ s⁻¹
Km [5]: 8.2677 ± 1.6107 mM
kcat [5]: 0.0084 ± 0.0013 s⁻¹
kcat/Km [5]: 1.02 M⁻¹ s⁻¹
Km [6]: 1.8651 ± 0.2537 mM
kcat [6]: 0.0032 ± 0.00026 s⁻¹
kcat/Km [6]: 1.72 M⁻¹ s⁻¹
Km [7]: 6.9024 ± 4.1426 mM
kcat [7]: 0.012 ± 0.0058 s⁻¹
kcat/Km [7]: 1.74 M⁻¹ s⁻¹
Km [8]: 6.4136 ± 2.0704 mM
kcat [8]: 0.0164 ± 0.0039 s⁻¹
kcat/Km [8]: 2.56 M⁻¹ s⁻¹
Km [9]: 1.1368 ± 0.1369 mM
kcat [9]: 0.0027 ± 0.00013 s⁻¹
kcat/Km [9]: 2.37 M⁻¹ s⁻¹
Km [10]: 0.8581 ± 0.2327 mM
kcat [10]: 0.0016 ± 0.00019 s⁻¹
kcat/Km [10]: 1.87 M⁻¹ s⁻¹
Km [11]: 2.735 ± 0.6103 mM
kcat [11]: 0.0071 ± 0.0007 s⁻¹
kcat/Km [11]: 2.6 M⁻¹ s⁻¹
